The data set concerns Escherichia coli TOP10. In words: shrunken log2 fold change of peptide-encoding DNA abundance (4.5 h post-induction vs induction); higher = less antimicrobial activity (less host growth inhibition). Conditions: time post-induction: 4.5 h; library: site-saturation at positions 5, 18, 19, 20.
For RRIRRRPPRLPRPRPRPNPEPRP, the “shrunken log2 fold change” value is 0.302.

In the case of RRIRFRPPRLPRPRPRPDEEPRP, the “shrunken log2 fold change” value is -0.00623. Then RRIRTRPPRLPRPRPRPQAAPRP, with -0.0432.

In the case of RRIRPRPPRLPRPRPRPTEIPRP, the “shrunken log2 fold change” value worked out at 0.000528. The result for RRIRRRPPRLPRPRPRPTIDPRP reads -0.0234. Take RRIRERPPRLPRPRPRPPQEPRP: the “shrunken log2 fold change” value was found to be 0.192. The result for RRIRPRPPRLPRPRPRPQADPRP reads 0.154. In the case of RRIRLRPPRLPRPRPRPCNMPRP, the “shrunken log2 fold change” value stood at 0.0385. The result for RRIRVRPPRLPRPRPRPARHPRP reads 0.287; that for RRIRSRPPRLPRPRPRPHKVPRP, -0.259; that for RRIRARPPRLPRPRPRPAPSPRP, 0.787. On to RRIRRRPPRLPRPRPRPWFDPRP, for which the “shrunken log2 fold change” value was -0.064. The result for RRIRIRPPRLPRPRPRPIGNPRP reads -0.104; that for RRIRKRPPRLPRPRPRPHCHPRP, 0.0986; that for RRIRLRPPRLPRPRPRPQFKPRP, -0.501. For the sequence RRIRVRPPRLPRPRPRPWQVPRP, the “shrunken log2 fold change” value was -0.161. Then RRIRLRPPRLPRPRPRPAQDPRP, with 0.392; and RRIRYRPPRLPRPRPRPTFTPRP, with -0.566. With RRIRARPPRLPRPRPRPASKPRP, the “shrunken log2 fold change” value is 0.0747. For the sequence RRIRVRPPRLPRPRPRPSAKPRP, the “shrunken log2 fold change” value is -0.354.

On to RRIRPRPPRLPRPRPRPPACPRP, for which the “shrunken log2 fold change” value stood at 0.207. The result for RRIRSRPPRLPRPRPRPHMCPRP reads -0.425; that for RRIRTRPPRLPRPRPRPTVQPRP, 0.0928. As for RRIRGRPPRLPRPRPRPPCCPRP, the “shrunken log2 fold change” value worked out at 0.478. The result for RRIRYRPPRLPRPRPRPDAFPRP reads -1.27; that for RRIRARPPRLPRPRPRPNLMPRP, -0.0139. Regarding RRIRKRPPRLPRPRPRPNLMPRP, the “shrunken log2 fold change” value is 3.86. The result for RRIRCRPPRLPRPRPRPFMAPRP reads -0.15. The result for RRIRTRPPRLPRPRPRPSSLPRP reads -0.0765. RRIRVRPPRLPRPRPRPWKRPRP: the “shrunken log2 fold change” value was -0.1.

RRIRVRPPRLPRPRPRPPRAPRP: the “shrunken log2 fold change” value was found to be 0.641. Then RRIRRRPPRLPRPRPRPWRGPRP, with 0.215. With RRIRLRPPRLPRPRPRPNKMPRP, the “shrunken log2 fold change” value is -0.158. In the case of RRIRHRPPRLPRPRPRPPRKPRP, the “shrunken log2 fold change” value was -0.0559. With RRIRIRPPRLPRPRPRPIPHPRP, the “shrunken log2 fold change” value is -0.297. Then RRIRLRPPRLPRPRPRPVWDPRP, with -0.0661; and RRIRKRPPRLPRPRPRPLQQPRP, with 0.26; and RRIRCRPPRLPRPRPRPFHWPRP, with -0.195. Then RRIRMRPPRLPRPRPRPINRPRP, with -0.0561. For the sequence RRIRRRPPRLPRPRPRPQRPPRP, the “shrunken log2 fold change” value came out at 0.391. As to RRIRGRPPRLPRPRPRPHSGPRP, the “shrunken log2 fold change” value was -0.0558.

As for RRIRTRPPRLPRPRPRPRSSPRP, the “shrunken log2 fold change” value was 0.0755. For the sequence RRIRWRPPRLPRPRPRPGQFPRP, the “shrunken log2 fold change” value was 0.061.

Regarding RRIRRRPPRLPRPRPRPFQMPRP, the “shrunken log2 fold change” value was -0.138.

Regarding RRIRGRPPRLPRPRPRPGAYPRP, the “shrunken log2 fold change” value turned out to be 0.339. The result for RRIRCRPPRLPRPRPRPPTKPRP reads 0.108. The result for RRIRSRPPRLPRPRPRPWNNPRP reads -0.627. Then RRIRTRPPRLPRPRPRPVHRPRP, with -0.0993; and RRIRMRPPRLPRPRPRPIWCPRP, with -0.234.

Consider RRIRIRPPRLPRPRPRPILHPRP, for which the “shrunken log2 fold change” value is -0.469. As to RRIRYRPPRLPRPRPRPIWSPRP, the “shrunken log2 fold change” value is -0.0646. Then RRIRWRPPRLPRPRPRPHERPRP, with 0.156. The result for RRIRRRPPRLPRPRPRPNANPRP reads 0.58. The result for RRIRIRPPRLPRPRPRPASLPRP reads -0.0288; that for RRIRIRPPRLPRPRPRPRIVPRP, -1.21; that for RRIRERPPRLPRPRPRPFISPRP, -0.0623.

On to RRIRFRPPRLPRPRPRPDEVPRP, for which the “shrunken log2 fold change” value was -0.00705. Then RRIRPRPPRLPRPRPRPGMTPRP, with 0.0694. The result for RRIRDRPPRLPRPRPRPPKSPRP reads 0.555; that for RRIRHRPPRLPRPRPRPKISPRP, -0.395; that for RRIRVRPPRLPRPRPRPAANPRP, -0.00167. For RRIRVRPPRLPRPRPRPWNGPRP, the “shrunken log2 fold change” value is -0.277.

Turning to RRIRLRPPRLPRPRPRPARYPRP, the “shrunken log2 fold change” value is -0.0839. The result for RRIRSRPPRLPRPRPRPDWWPRP reads -0.0873.

On to RRIRTRPPRLPRPRPRPVAMPRP, for which the “shrunken log2 fold change” value was -0.0639.

As for RRIRNRPPRLPRPRPRPLWAPRP, the “shrunken log2 fold change” value is -0.0559.

For RRIRYRPPRLPRPRPRPAYIPRP, the “shrunken log2 fold change” value is -0.00172. The result for RRIRGRPPRLPRPRPRPCEQPRP reads 0.48; that for RRIRQRPPRLPRPRPRPSYKPRP, -0.54. The result for RRIRWRPPRLPRPRPRPWHPPRP reads 0.0551; that for RRIRLRPPRLPRPRPRPWMNPRP, -0.0474; that for RRIRWRPPRLPRPRPRPGWVPRP, 0.224.

Consider RRIRNRPPRLPRPRPRPEVFPRP, for which the “shrunken log2 fold change” value was determined as 0.0362. In the case of RRIRFRPPRLPRPRPRPGNGPRP, the “shrunken log2 fold change” value is 0.228. Then RRIRSRPPRLPRPRPRPVMMPRP, with -0.0812; and RRIRNRPPRLPRPRPRPVRYPRP, with -0.0196; and RRIRGRPPRLPRPRPRPKLGPRP, with 1.12. Then RRIRWRPPRLPRPRPRPYYIPRP, with -0.459; and RRIRARPPRLPRPRPRPPQHPRP, with 0.655.

For the sequence RRIRERPPRLPRPRPRPSIMPRP, the “shrunken log2 fold change” value was -1.02. Then RRIRVRPPRLPRPRPRPMDAPRP, with 0.0377. Then RRIRMRPPRLPRPRPRPGYHPRP, with 0.0695; and RRIRARPPRLPRPRPRPQYEPRP, with 0.181. Then RRIRHRPPRLPRPRPRPCMDPRP, with -0.0981; and RRIRGRPPRLPRPRPRPDSQPRP, with 0.223. As for RRIRFRPPRLPRPRPRPNHLPRP, the “shrunken log2 fold change” value is -1.06. Then RRIRLRPPRLPRPRPRPEYTPRP, with -0.0657; and RRIRRRPPRLPRPRPRPNDLPRP, with -0.0791.

For RRIRARPPRLPRPRPRPKNCPRP, the “shrunken log2 fold change” value was -0.245. Then RRIRKRPPRLPRPRPRPGRAPRP, with 0.786; and RRIRQRPPRLPRPRPRPGKVPRP, with -0.0155; and RRIRMRPPRLPRPRPRPKYRPRP, with 0.0666. Turning to RRIRRRPPRLPRPRPRPSGKPRP, the “shrunken log2 fold change” value is 0.845. As to RRIRNRPPRLPRPRPRPTPWPRP, the “shrunken log2 fold change” value turned out to be 0.161. The result for RRIRCRPPRLPRPRPRPQEEPRP reads -0.0124; that for RRIRMRPPRLPRPRPRPKPEPRP, 0.0854; that for RRIRCRPPRLPRPRPRPEDCPRP, 0.173. Then RRIRLRPPRLPRPRPRPVQAPRP, with -0.0131. The result for RRIRVRPPRLPRPRPRPKTSPRP reads -0.128; that for RRIRHRPPRLPRPRPRPAVGPRP, 0.11; that for RRIRQRPPRLPRPRPRPMDIPRP, -0.155. In the case of RRIRLRPPRLPRPRPRPAKMPRP, the “shrunken log2 fold change” value was -0.169. The result for RRIRMRPPRLPRPRPRPPLNPRP reads 0.584; that for RRIRSRPPRLPRPRPRPRRYPRP, -0.0572; that for RRIRYRPPRLPRPRPRPPRSPRP, -0.148. Then RRIRTRPPRLPRPRPRPFASPRP, with -0.00185; and RRIRIRPPRLPRPRPRPSCLPRP, with -0.998; and RRIRHRPPRLPRPRPRPFLFPRP, with -0.408. The result for RRIRQRPPRLPRPRPRPWKTPRP reads -0.0168. Turning to RRIRARPPRLPRPRPRPRSAPRP, the “shrunken log2 fold change” value is 0.681. Then RRIRGRPPRLPRPRPRPCEEPRP, with 0.742; and RRIRGRPPRLPRPRPRPPKMPRP, with 0.348; and RRIRMRPPRLPRPRPRPNWMPRP, with -0.0131.

As for RRIRRRPPRLPRPRPRPRYEPRP, the “shrunken log2 fold change” value came out at 0.0341. The result for RRIRDRPPRLPRPRPRPMSTPRP reads 0.0569. The result for RRIRERPPRLPRPRPRPCEEPRP reads -0.125. RRIRLRPPRLPRPRPRPSEGPRP: the “shrunken log2 fold change” value is -0.501. The result for RRIRNRPPRLPRPRPRPYPTPRP reads -0.074; that for RRIRTRPPRLPRPRPRPPHNPRP, 0.0332. The result for RRIRKRPPRLPRPRPRPMCVPRP reads 0.208; that for RRIRTRPPRLPRPRPRPYSFPRP, -0.552. As for RRIRPRPPRLPRPRPRPMQYPRP, the “shrunken log2 fold change” value is -0.0088. For the sequence RRIRLRPPRLPRPRPRPIFAPRP, the “shrunken log2 fold change” value came out at 0.331. Consider RRIRWRPPRLPRPRPRPSSGPRP, for which the “shrunken log2 fold change” value is -0.00985. Then RRIRRRPPRLPRPRPRPKVTPRP, with -0.131.

Source of the values: the supplement of paper PMC9112550, “Optimization of the antimicrobial peptide Bac7 by deep mutational scanning” (BMC Biology, 2022).
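Also: peptides expressed intracellularly from a pBAD plasmid library in pooled LB shake-flask culture, induced with 0.3% L-arabinose, DNA abundance read by NGS, three biological replicates, DESeq2 with apeglm shrinkage.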
